Measurements: publication PMC13185310, “A versatile nanobody platform for live and super-resolution imaging of synaptic vesicle dynamics and plasticity in rodent and human neurons” (Journal of Nanobiotechnology, 2026)

Legend:
Conditions in all cases: one partner purified
[1] = biological target: T1, endogenous Syt1 on the surface of live hippocampal neurons (uPAINT) (Rattus norvegicus (assumed), UniProt P21707); assay: single-molecule imaging on live neurons (uPAINT); live hippocampal neurons (21-22 DIV) in high-K+ buffer with 1 nM labelled nanobody complex, HILO, 50 Hz for 320 s, 37 °C
T1 construct: Synaptotagmin 1 (Syt1), endogenous; also called surface-exposed Syt1; source: endogenous, live hippocampal neurons (21-22 DIV)

[2] = biological target: T2, endogenous human Syt1 of human iPSC-derived neurons (Homo sapiens, UniProt P21579); assay: immunostaining of cells or tissue; live staining of 80-day-old human iPSC-derived hypothalamic neurons with 5.5 µM pHluorin-labeled nanobody, 20 min at 37 °C, with 30 mM KCl or 1 µM TTX, after blocking the surface pool with unlabeled nanobody; fixed and stained with anti-GFP, anti-Syt1, anti-TUBB3
T2 construct: Synaptotagmin 1 (Syt1), human, endogenous; also called endogenous Syt1; source: endogenous, live human iPSC-derived hypothalamic-like neurons

[3] = biological target: T3, endogenous Synaptotagmin 1 of wild-type mouse neurons / brain (Mus musculus, UniProt P46096); assay: co-IP; GFP-tagged nanobody preloaded on GFP Selector beads; lysate of WT or Syt1 KO mouse brain, 1 h at 4 °C; blot with a Syt1 cytoplasmic antibody
T3 construct: Synaptotagmin 1 (Syt1), mouse, endogenous; On live neurons in the uptake experiment; in a detergent lysate in the immunoprecipitation; also called endogenous Syt1; Syt1; source: endogenous, WT mouse brain lysate (methods; the legend says mouse primary neurons); endogenous, on live WT mouse primary neurons

[4] = biological target: T4, endogenous Synaptotagmin 1 of primary hippocampal neurons (proximity labelling and PLA) (rat (endogenous in primary hippocampal …, UniProt P21707)); assay: proximity labelling; NbLumSyt1-APEX2 taken up by live primary neurons (30 min, with biotin-phenol), 1 mM H2O2 for 30 s; streptavidin beads, LC-MS/MS; controls: no nanobody, NbALFA-APEX2
T4 construct: Synaptotagmin 1 (Syt1), endogenous; spectra searched against the Rattus norvegicus proteome (UP000234681); neurons 'in most cases' from Wistar rat pups; also called Syt1; Syt1-lum; source: endogenous, live primary hippocampal neurons
T4 sequence (P21707 whole entry): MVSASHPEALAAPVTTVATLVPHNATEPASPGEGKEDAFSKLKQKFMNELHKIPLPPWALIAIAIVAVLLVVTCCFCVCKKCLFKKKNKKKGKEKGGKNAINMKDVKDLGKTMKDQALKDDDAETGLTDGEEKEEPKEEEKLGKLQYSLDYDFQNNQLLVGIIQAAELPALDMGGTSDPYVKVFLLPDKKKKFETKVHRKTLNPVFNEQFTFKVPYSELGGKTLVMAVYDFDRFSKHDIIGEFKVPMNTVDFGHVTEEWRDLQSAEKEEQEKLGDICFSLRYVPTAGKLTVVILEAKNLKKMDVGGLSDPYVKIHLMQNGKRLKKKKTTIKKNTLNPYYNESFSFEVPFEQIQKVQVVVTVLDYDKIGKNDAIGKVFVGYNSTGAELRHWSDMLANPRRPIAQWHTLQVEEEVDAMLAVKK

T1 sequence (P21707 whole entry): as above
T3 sequence (P46096 whole entry): as the sequence (P21707 whole entry) above, with H6R counted along it
T2 sequence (P21579 whole entry): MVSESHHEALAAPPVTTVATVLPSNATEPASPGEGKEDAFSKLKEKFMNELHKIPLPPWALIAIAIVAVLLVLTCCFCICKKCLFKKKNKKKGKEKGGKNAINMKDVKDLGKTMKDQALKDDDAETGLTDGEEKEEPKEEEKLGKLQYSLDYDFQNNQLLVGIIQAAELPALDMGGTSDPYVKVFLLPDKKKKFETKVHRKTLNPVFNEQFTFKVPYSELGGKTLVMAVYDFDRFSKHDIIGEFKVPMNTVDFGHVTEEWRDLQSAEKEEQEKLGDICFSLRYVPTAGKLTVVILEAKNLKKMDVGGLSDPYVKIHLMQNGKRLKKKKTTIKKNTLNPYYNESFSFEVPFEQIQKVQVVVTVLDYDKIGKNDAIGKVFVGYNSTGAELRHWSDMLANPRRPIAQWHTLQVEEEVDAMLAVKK

B1: NbLumSyt1-HALO bound to the Halo-ligand JF549 (VHH)
VHH: EVQLVESGGGLVQTGGSLRLSCTASGSIGSISVMGWYRQVPGTQYELVAGISRGGSTWYEDSVKGRFTISRDNAKNTLYLQMNSLKPEDTGMYYCAGGDYSDRLGSWGQGTQVTVSS
notes: alpaca nanobody clone 1F12; as the nanobody of m1 (PDB 8B8I chain A); also called NbLumSyt1-HALO/JF549; NbLumSyt1-Halo/JF549; source: produced and purified via NanoTag Biotechnologies
B1: binds [1].

B2: NbLumSyt1-pHluorin (VHH)
VHH: EVQLVESGGGLVQTGGSLRLSCTASGSIGSISVMGWYRQVPGTQYELVAGISRGGSTWYEDSVKGRFTISRDNAKNTLYLQMNSLKPEDTGMYYCAGGDYSDRLGSWGQGTQVTVSS
notes: alpaca nanobody clone 1F12; as the nanobody of m1 (PDB 8B8I chain A); In uPAINT it was precomplexed with an anti-GFP nanobody carrying Atto647N (a label); A version with a TEV site in the linker also exists; also called NbSyt1-pH; pHluorin-labeled Syt1 nanobody
B2: binds [1]; binds [2].

B3: NbLumSyt1 fused to a GFP tag (VHH)
VHH: EVQLVESGGGLVQTGGSLRLSCTASGSIGSISVMGWYRQVPGTQYELVAGISRGGSTWYEDSVKGRFTISRDNAKNTLYLQMNSLKPEDTGMYYCAGGDYSDRLGSWGQGTQVTVSS
notes: alpaca nanobody clone 1F12; as the nanobody of m1 (PDB 8B8I chain A); Held on GFP Selector beads in the IP; detected with anti-GFP after uptake in neurons; also called GFP-tagged nanobody
B3: binds [3].

B4: NbLumSyt1-APEX2 (VHH)
VHH: EVQLVESGGGLVQTGGSLRLSCTASGSIGSISVMGWYRQVPGTQYELVAGISRGGSTWYEDSVKGRFTISRDNAKNTLYLQMNSLKPEDTGMYYCAGGDYSDRLGSWGQGTQVTVSS
notes: alpaca nanobody clone 1F12; as the nanobody of m1 (PDB 8B8I chain A); also called Nb-APEX2
B4: binds [4].
